{
  "source": "patent US20180369341A1",
  "key": {"[1]": {"target": "human GLP-1 receptor (human) (UniProt P43220)", "sequence (P43220 24-463)": "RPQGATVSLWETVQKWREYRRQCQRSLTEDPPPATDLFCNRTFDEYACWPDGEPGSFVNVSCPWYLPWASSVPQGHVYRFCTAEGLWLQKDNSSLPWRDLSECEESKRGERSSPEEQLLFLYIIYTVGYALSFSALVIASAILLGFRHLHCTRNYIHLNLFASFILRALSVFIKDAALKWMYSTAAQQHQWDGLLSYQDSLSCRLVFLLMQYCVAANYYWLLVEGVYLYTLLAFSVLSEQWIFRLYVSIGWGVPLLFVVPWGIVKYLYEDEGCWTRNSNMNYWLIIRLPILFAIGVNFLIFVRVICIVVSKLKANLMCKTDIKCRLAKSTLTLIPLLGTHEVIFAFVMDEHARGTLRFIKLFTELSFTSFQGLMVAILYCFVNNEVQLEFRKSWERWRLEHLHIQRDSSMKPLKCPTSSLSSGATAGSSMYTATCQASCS", "test": "cell-based or functional assay"}, "FcRn [2]": {"target": "FcRn", "test": "FcRn binding assay (method not described); Aggregation Study, albiglutide in NaCl + cysteine formulation, stored at 30°C for 2 months"}, "FcRn [3]": {"target": "FcRn", "test": "FcRn binding assay (method not described); Aggregation Study, albiglutide in NaCl + cysteine formulation, stored at 2-8°C for 2 months"}, "FcRn [4]": {"target": "FcRn", "test": "FcRn binding assay (method not described); Aggregation Study, albiglutide in NaCl, octanoate and cysteine formulation, stored at 30°C for 2 months"}, "FcRn [5]": {"target": "FcRn", "test": "FcRn binding assay (method not described); Aggregation Study, albiglutide in NaCl, octanoate and cysteine formulation, stored at 2-8°C for 2 months"}},
  "data": [
    {"substance": "albiglutide (from UniProt P02768 25-609) (ligand)", "values": [
      {"measurement": "Bioassay potency; Aggregation Study, all formulations, 2 months 30°C (lower end)", "setting": "[1]", "value": 130, "unit": "%"},
      {"measurement": "Bioassay potency; Aggregation Study, all formulations, 2 months 30°C (upper end)", "setting": "[1]", "value": 160, "unit": "%"},
      {"measurement": "Bioassay potency; PFS Study, Variations A and B, 1 month 40°C", "setting": "[1]", "value": 180, "unit": "%"},
      {"measurement": "Bioassay potency; PFS Study, all variations, 3 months 30°C", "setting": "[1]", "value": 130, "unit": "%"},
      {"measurement": "decrease in FcRn binding", "setting": "FcRn [2]", "value": 23, "unit": "%"},
      {"measurement": "decrease in FcRn binding", "setting": "FcRn [3]", "value": 6, "unit": "%"},
      {"measurement": "decrease in FcRn binding", "setting": "FcRn [4]", "value": 23, "unit": "%"},
      {"measurement": "decrease in FcRn binding", "setting": "FcRn [5]", "value": 16, "unit": "%"}
    ]}
  ]
}
